Binding result and Kd data for 4 molecules are collected here from paper PMC7878476, “Regulatory inter-domain interactions influence Hsp70 recruitment to the DnaJB8 chaperone” (Nature Communications, 2021).

Where “and” joins values, the source holds several entries; their conditions need not be identical. Identical values can stand only once.

B3: FITC-labeled JD_(1–82) of DnaJB8 (domain or fragment, human, UniProt Q8NHS0 1-82, looked up)
chain: MANYYEVLGVQASASPEDIKKAYRKLALRWHPDKNPDNKEEAEKKFKLVSEAYEVLSDSKKRSLYDRAGCDSWRAGGGASTP
modifications: FITC (labeled with 10× FITC-maleimide; site not stated)
notes: DnaJB8, human, J-domain, residues 1-82; Same construct as m4, with the fluorescein label; also called JD_(1–82)-FITC; JD_(1–82)–FITC; source: E. coli BL-21 (DE3), purified (TALON, Superdex 200), labeled with FITC-maleimide, excess dye removed by Superdex 75

Series [1] deals with the molecule itself. Put plainly: cross-linking; DnaJB8–Clover held on anti-GFP nanobody/Ni-NTA beads, 1× PBS, 57 mM ADH + 36 mM DMTMM, 1 min at 37 °C; eluate analysed by MS and western blot.
Series [2] deals with the molecule itself. Put plainly: dynamic light scattering; 1.2 mg/mL in 1× PBS, 1 mM DTT, pH 7.4, room temperature, time course over about 20 h; 150 mM or 285 mM NaCl for full-length DnaJB8.
Another series has as its target T1, human Hsp70 (HspA1A) (human, UniProt P0DMV8 1-641).
T1 construct: HspA1A (Hsp70), human; HspA1A gene cloned into pMCSG7; no tag cleavage is described; source: E. coli BL-21 (DE3), purified (TALON, HiTrap Q anion exchange, Superdex 200)
The series can be described thus: fluorescence polarisation; 0.2 μM FITC-JD_(1–82) with a titration of Hsp70 or CTD_(170–232) (150–0 μM) in 1× PBS, 1 mM TCEP, pH 7.4; one site-specific binding fit. The conditions noted are these: both partners purified. (In general: In fluorescence polarisation assays a small probe gives low polarisation when free and higher when bound to something large.)

The target of series [3] is B3. Described as above. The conditions noted are these: both partners purified.

T1 sequence (P0DMV8 whole entry): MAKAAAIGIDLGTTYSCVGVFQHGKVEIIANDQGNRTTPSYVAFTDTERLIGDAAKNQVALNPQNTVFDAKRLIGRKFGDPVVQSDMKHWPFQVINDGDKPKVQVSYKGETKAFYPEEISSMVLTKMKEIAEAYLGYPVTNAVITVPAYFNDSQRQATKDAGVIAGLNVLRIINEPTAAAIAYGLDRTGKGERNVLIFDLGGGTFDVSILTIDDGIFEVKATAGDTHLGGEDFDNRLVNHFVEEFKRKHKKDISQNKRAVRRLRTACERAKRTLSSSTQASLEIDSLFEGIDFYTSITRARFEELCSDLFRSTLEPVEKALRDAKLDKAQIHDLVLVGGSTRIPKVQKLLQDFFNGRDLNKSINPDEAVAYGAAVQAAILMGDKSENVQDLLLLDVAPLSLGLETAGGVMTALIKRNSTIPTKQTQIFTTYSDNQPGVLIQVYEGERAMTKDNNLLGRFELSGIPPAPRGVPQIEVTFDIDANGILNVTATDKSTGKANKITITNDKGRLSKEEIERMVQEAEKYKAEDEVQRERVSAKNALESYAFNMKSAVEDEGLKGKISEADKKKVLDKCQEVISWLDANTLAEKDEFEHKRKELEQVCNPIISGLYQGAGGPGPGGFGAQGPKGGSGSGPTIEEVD

B1: DnaJB8–mClover3 fusion protein (natural protein, human, UniProt Q8NHS0 1-232, looked up)
chain: MANYYEVLGVQASASPEDIKKAYRKLALRWHPDKNPDNKEEAEKKFKLVSEAYEVLSDSKKRSLYDRAGCDSWRAGGGASTPYHSPFDTGYTFRNPEDIFREFFGGLDPFSFEFWDSPFNSDRGGRGHGLRGAFSAGFGEFPAFMEAFSSFNMLGCSGGSHTTFSSTSFGGSSSGSSGFKSVMSSTEMINGHKVTTKRIVENGQERVEVEEDGQLKSVTVNGKEQLKWMDSK
notes: also called DnaJB8–Clover; source: HEK293T polyclonal lentiviral cell line, isolated from lysate with His-tagged anti-GFP nanobody on Ni-NTA resin
B1: the binding result in series [1] is reported as “binds”.

B2: recombinant full-length DnaJB8 (wild type) (natural protein, human, UniProt Q8NHS0 1-232, looked up)
chain: MANYYEVLGVQASASPEDIKKAYRKLALRWHPDKNPDNKEEAEKKFKLVSEAYEVLSDSKKRSLYDRAGCDSWRAGGGASTPYHSPFDTGYTFRNPEDIFREFFGGLDPFSFEFWDSPFNSDRGGRGHGLRGAFSAGFGEFPAFMEAFSSFNMLGCSGGSHTTFSSTSFGGSSSGSSGFKSVMSSTEMINGHKVTTKRIVENGQERVEVEEDGQLKSVTVNGKEQLKWMDSK
notes: pET-29b; no tag removal is described; also called WT DnaJB8; source: E. coli BL-21 (DE3), purified from the insoluble fraction (8 M guanidinium HCl, Ni-NTA), dialysed, lyophilised
Regarding B2, in series [2], the binding result was “binds”.

For orientation: Kd means the constant that tells how readily two partners part at equilibrium. Read a low Kd as a tighter complex. In turn, B3 showed a Kd with human Hsp70 (HspA1A) of 0.413 ± 0.057 µM.

B4: isolated C-terminal domain of DnaJB8, CTD_(170–232) (domain or fragment, human, UniProt Q8NHS0 170-232, looked up)
chain: GGSSSGSSGFKSVMSSTEMINGHKVTTKRIVENGQERVEVEEDGQLKSVTVNGKEQLKWMDSK
notes: source: E. coli BL-21 (DE3), purified (TALON, Superdex 200)
In the case of B4, in series [3], the dissociation constant (Kd) is 4.4 µM and 6.21 µM and 4.43 µM.
